For this assay, the target named is T1, AahII toxin of Androctonus australis hector (Androctonus australis hector, UniProt P01484 20-83).
T1 construct: mature; also called Aahll
T1 sequence: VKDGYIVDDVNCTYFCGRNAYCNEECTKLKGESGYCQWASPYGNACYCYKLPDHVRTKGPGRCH
The assay is described as follows: phage ELISA on coated AahII, Nb displayed on phage.

This note sets out measurements from patent WO2009150539A2 (dated 2009).

B1: NbAahII45 (VHH)
VHH: QVQLQESGGGSVQAGGSLKLSCAASGYFYSSNYYMAWFRQAPGKEREGVAHINRSGRITLYADSVKGRFTMSRDNAKNTVYLQMNSLKPEDTAIYYCAAGVRTHMPPLASYGFDYWGQGTQVTVSS
Turning to B1, the binding result is reported as “binds”.

B2: NbAahII48 (VHH)
VHH: QVQLVESGGGSVQAGGSLRLSCAASGYTCTKFNMGWYRQAPGKEREFVATIRRDSTIYYADSVKGRFTISQDNAKNMVYLQMTSLKPEDSAMYYCSTRCVTSSVPYWGQGTQVTVSS
On to B2, for which the binding result is on record as “binds”.
